Article PMC7312448

Target: MavC (wild type) (L. pneumophila)
Experiment: SEC

Substance: MavC (wild type) (enzyme)
- stoichiometry N: 2
